How the values were obtained:
[1] = target: p50-NTD (mouse, UniProt P25799 39-245); experiment: NMR
[2] = target: p50-RHR homodimer (mouse, UniProt P25799 39-363); experiment: NMR
Chain of p50-RHR homodimer (P25799 39-363): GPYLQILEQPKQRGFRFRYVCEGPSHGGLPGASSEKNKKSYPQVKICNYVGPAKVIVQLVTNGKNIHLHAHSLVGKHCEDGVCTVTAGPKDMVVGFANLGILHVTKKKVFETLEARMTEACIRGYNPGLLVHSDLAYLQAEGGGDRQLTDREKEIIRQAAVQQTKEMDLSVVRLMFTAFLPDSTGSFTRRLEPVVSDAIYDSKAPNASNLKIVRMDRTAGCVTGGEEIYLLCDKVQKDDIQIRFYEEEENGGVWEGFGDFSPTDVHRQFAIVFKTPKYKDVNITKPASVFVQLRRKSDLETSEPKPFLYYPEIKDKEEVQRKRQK

Chain of p50-NTD (P25799 39-245): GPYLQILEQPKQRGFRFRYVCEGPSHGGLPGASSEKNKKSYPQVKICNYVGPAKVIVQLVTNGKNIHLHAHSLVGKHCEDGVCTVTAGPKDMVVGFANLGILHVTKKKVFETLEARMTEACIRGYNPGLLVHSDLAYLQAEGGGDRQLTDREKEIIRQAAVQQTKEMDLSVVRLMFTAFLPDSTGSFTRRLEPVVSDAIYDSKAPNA

B1: half-kBL (21-mer) (dsDNA)
DNA 1: CTTCGGGAAATAGAAACTCTC
DNA 2: GAGAGTTTCTATTTCCCGAAG
binding result [1]: binds

B2: half-kB (18-mer) (dsDNA)
DNA 1: TTCGGGAAATAGAAACTC
DNA 2: GAGTTTCTATTTCCCGAA
binding result [1]: binds

B3: full-kB (14-mer) (dsDNA)
DNA 1: TCGGGAATTCCCGA
DNA 2: TCGGGAATTCCCGA
binding result [2]: binds | binding result [1]: binds
